Measured values taken from paper PMC10021056 (Nature Communications, 2023).

T1: prefusion Hendra virus (HeV) F (Hendra virus, reference strain …, stabilised)
T1 chain: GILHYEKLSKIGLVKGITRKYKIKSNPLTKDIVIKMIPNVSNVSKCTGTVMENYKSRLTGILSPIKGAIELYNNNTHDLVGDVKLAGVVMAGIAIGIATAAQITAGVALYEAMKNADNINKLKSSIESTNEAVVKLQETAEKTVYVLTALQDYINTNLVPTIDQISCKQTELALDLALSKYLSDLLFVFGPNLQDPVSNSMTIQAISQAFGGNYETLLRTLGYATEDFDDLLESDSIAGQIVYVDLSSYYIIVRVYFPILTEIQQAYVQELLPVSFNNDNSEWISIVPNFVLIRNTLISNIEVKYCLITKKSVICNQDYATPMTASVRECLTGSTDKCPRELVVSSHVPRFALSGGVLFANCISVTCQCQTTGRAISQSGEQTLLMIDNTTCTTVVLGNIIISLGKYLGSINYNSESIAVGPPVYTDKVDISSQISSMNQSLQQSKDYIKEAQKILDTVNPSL

T2: prefusion Hendra virus (HeV) F protein (Hendra virus, reference strain …)
T2 chain: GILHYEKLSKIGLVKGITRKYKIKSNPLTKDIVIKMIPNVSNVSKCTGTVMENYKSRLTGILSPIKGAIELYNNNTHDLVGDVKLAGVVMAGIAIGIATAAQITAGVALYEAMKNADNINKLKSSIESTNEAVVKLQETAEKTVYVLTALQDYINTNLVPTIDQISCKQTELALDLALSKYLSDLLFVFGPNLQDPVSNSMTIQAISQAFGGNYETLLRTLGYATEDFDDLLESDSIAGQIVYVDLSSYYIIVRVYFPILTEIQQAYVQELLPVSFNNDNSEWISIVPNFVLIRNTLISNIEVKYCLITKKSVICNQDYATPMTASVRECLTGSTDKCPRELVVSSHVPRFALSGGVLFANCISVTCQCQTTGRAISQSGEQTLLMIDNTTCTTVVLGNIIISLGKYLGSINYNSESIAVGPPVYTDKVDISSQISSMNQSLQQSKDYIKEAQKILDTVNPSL

B1: Fab 2D3 (Fab, V domains shown)
VH: QVQLKQSGPGLVAPSQSLSITCTVSGFSLTSYALSWVRQPPGKGLEWLGVIWVGGVTNYNSALKSRLTISKDNSKSQVFLKMNSLQSEDTARYYCASRHLSTGAMDYWGQGTSVTVSA
VL: DVLMTQSPLSLPVSLGDQASISCRSSQSIVHSNGDTYFEWYLQKPGQSPKLLIYKVSNRFSGVPNRFSGSGSGTDFTLKISRVEAEDLGVYYCFQGSYVPYTFGGGTKLEIK
notes: recombinant Fab of m5
B2: Fab 4F6 (Fab, V domains shown)
VH: QVQLQQSGAELVKPGASVKLSCKASGYTFTSNWMHWVKQRPGRGLEWIGRIDPNSGGTKYNEKFKSKATLTVDKPSSTAYMQLSSLTSEDSAVYYCARDGHYAYFDVWAPGTTVTVSS
VL: DIVMTQSQKFMSTSVGDRVSVTCKASQNVGTTVAWYQQKPGQSPNALIYSASYRYTGVPDRFTGSGSGTDFTLTISNVQSEDLAEYFCQQYNRYPWTFGGGTKLEIK
notes: recombinant Fab of m13
B3: Fab 1H8 (Fab, V domains shown)
VH: EVQLQQSGPELVKPGASVKISCKASGYSFTGYTMNWVKQSHGKNLEWIGLINPFIGGTRYNQKFKGKATLTVDKSSRTAYMELLSLTSEDSAVYYCAREADYDWYFDVWGAGTTVTVSS
VL: DIQMTQTTSSLSASLGDRVTISCRASQDISNYLHWYQQKPDGTVNLLIFYTSRLHSGVPSRFSGSGSGTDYSLTISNLEQEDIATYFCQQGNTLPRTFGGGTKLEIK
notes: recombinant Fab of m6
B4: Fab 1H1 (Fab, V domains shown)
VH: VQLQQSGAELMRPGASMKISCKATGYTFSSYWIDWVKQRPGHGLEWIGEILPGSGDTNYNENFKGKAAFTADTSSNTAYMQLTSLTSEDSAVFYCARGGRYHGQGFFDYWGQGTTLTVSS
VL: IQMTQSPASLSASVGETVTITCRPSENVHIYLAWYQQKQGKSPQLLVYNAKTLADGVPSRFSGSASGTQFSLKINSLQPEDFGSYYCQHFWSIPYTFGGGTKLEIK
notes: recombinant Fab of m8
B5: Fab 1F2 (Fab, V domains shown)
VH: EVQLQQSGPELVKPGVSLKISCKASGYSFTDYTMNWVKQSHGKNLEWIGLINPYIGGTRYNQKFKGKATLTVDKSSSTAYLELLSLTSEDSAVYYCARFSGSSNRAMDYWGQGTSVTVSS
VL: DIQMTQSPASLSASVGETVTITCGASENIYGALNWYQRKQGKSPQLLIYGATNLADGMSSRFSGSGSARQYSLKISSLHPDDVATYYCQNVLSIPWTFGGGTKLEIK
notes: recombinant Fab of m12
B6: Fab 1A9 (Fab, V domains shown)
VH: QVQLQQSGAELVRPGTSVKISCKASGYTFTNYWLGWVKQRPGHGLEWIGDIYRGGGYTNYNEKFKGKATLTADTSSSTAYMQLSSLTSEDSAVYFCATRDGYFDYWGQGTTLTVSS
VL: DIQMTQSSSSFSVSLGDRTTITCKASEDIYNRLAWFQQKPGNAPRLLISGATSLETGVPSRFSGSGSGKDYTLSITSLQTEDVATYYCQQYWSSPWTFGGGTKLEIK
notes: recombinant Fab of m7
B7: Fab 2B12 (Fab, V domains shown)
V domain 1: EVQLVESGGGLVQPKGSLKLSCAASGFIFNTYAMHWVRQAPGKGLEWVARIRSKSSNYATYYADSVKDRFTISRDDSQSMLYLQMNNLKTEDTAMYYCVREGGYYFDYWGQGTTLTFSA
V domain 2: DIVMSQSPSSLAVSVGEKVTMSCKSSQSLLHVSNQKNYLAWYQQKPGQSPKLLIYWASTRESGVPDRFTGSGSGTDFTLTISSVKAEDLAVYYCQQYYSYPWPFGGGTKLKSN
notes: recombinant Fab of m9
B8: Fab 4F6 (Fab, V domains shown)
VH: QVQLQQSGAELVKPGASVKLSCKASGYTFTSNWMHWVKQRPGRGLEWIGRIDPNSGGTKYNEKFKSKATLTVDKPSSTAYMQLSSLTSEDSAVYYCARDGHYAYFDVWAPGTTVTVSS
VL: DIVMTQSQKFMSTSVGDRVSVTCKASQNVGTTVAWYQQKPGQSPNALIYSASYRYTGVPDRFTGSGSGTDFTLTISNVQSEDLAEYFCQQYNRYPWTFGGGTKLEIK
B9: Fab 1H1 (Fab, V domains shown)
VH: VQLQQSGAELMRPGASMKISCKATGYTFSSYWIDWVKQRPGHGLEWIGEILPGSGDTNYNENFKGKAAFTADTSSNTAYMQLTSLTSEDSAVFYCARGGRYHGQGFFDYWGQGTTLTVSS
VL: IQMTQSPASLSASVGETVTITCRPSENVHIYLAWYQQKQGKSPQLLVYNAKTLADGVPSRFSGSASGTQFSLKINSLQPEDFGSYYCQHFWSIPYTFGGGTKLEIK
B10: Fab 1F2 (Fab, V domains shown)
VH: EVQLQQSGPELVKPGVSLKISCKASGYSFTDYTMNWVKQSHGKNLEWIGLINPYIGGTRYNQKFKGKATLTVDKSSSTAYLELLSLTSEDSAVYYCARFSGSSNRAMDYWGQGTSVTVSS
VL: DIQMTQSPASLSASVGETVTITCGASENIYGALNWYQRKQGKSPQLLIYGATNLADGMSSRFSGSGSARQYSLKISSLHPDDVATYYCQNVLSIPWTFGGGTKLEIK
B11: Fab 2B12 (Fab, V domains shown)
V domain 1: EVQLVESGGGLVQPKGSLKLSCAASGFIFNTYAMHWVRQAPGKGLEWVARIRSKSSNYATYYADSVKDRFTISRDDSQSMLYLQMNNLKTEDTAMYYCVREGGYYFDYWGQGTTLTFSA
V domain 2: DIVMSQSPSSLAVSVGEKVTMSCKSSQSLLHVSNQKNYLAWYQQKPGQSPKLLIYWASTRESGVPDRFTGSGSGTDFTLTISSVKAEDLAVYYCQQYYSYPWPFGGGTKLKSN

Molecular target: T1, prefusion Hendra virus (HeV) F
Assay: BLI
Conditions: both partners purified

Binder	binding result
B1	binds
B2	binds
B3	binds
B4	binds
B5	binds
B6	binds
B7	binds

Molecular target: T2, prefusion Hendra virus (HeV) F protein
Assay: BLI
Conditions: both partners purified

Binder	binding result
B8	binds
B9	binds
B10	binds
B11	binds
